Reference: US20230212306A1 (Daiichi Sankyo, published 2023)

Assays:
[1] = target: T1, human TLR7 (variant 1)-Flag, expressed in HEK293 cells (human, UniProt Q9NYK1 27-1049); assay: flow cytometry on fixed and permeabilised HEK293 cells expressing human TLR7 (variant 1)-Flag
T1 construct: Transient expression from pcDNA3.1 in Lenti-X HEK293T cells; cells fixed and permeabilised before staining; not shown: Flag tag
T1 sequence: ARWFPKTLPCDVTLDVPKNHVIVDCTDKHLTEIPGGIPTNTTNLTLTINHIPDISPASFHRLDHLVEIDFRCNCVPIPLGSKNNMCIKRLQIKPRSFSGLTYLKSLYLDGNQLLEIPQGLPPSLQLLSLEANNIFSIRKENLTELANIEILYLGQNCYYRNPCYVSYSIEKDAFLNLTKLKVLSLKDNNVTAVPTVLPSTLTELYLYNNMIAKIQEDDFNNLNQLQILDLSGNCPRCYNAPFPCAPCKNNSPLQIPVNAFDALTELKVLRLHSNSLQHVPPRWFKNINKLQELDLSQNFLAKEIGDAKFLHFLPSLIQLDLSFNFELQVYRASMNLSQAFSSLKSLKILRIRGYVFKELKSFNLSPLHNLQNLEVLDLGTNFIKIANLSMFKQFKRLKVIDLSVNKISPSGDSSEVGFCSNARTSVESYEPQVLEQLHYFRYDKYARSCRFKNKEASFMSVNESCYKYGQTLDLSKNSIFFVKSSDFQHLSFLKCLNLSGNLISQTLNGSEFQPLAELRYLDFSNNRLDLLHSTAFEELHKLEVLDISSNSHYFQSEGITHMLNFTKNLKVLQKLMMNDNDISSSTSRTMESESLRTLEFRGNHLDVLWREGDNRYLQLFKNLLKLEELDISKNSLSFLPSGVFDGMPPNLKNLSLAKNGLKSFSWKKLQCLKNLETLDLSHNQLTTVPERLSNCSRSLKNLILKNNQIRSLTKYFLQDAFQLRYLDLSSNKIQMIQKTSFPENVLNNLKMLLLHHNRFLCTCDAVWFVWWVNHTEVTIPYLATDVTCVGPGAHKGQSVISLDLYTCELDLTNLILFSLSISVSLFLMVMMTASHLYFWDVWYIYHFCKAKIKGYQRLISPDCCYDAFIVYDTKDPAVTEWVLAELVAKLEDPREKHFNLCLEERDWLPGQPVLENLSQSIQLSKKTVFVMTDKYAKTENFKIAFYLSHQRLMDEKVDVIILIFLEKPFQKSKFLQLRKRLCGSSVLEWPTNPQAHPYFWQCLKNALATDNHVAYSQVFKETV
Source text: (§1) The HEK293 cells expressing human TLR7 (variant 1)-Flag prepared in 8)-1, the HEK293 cells expressing human TLR7 (variant 2)-Flag prepared in 8)-2, the HEK293 cells expressing monkey TLR7-Flag prepared in 8)-3, the HEK293 cells expressing mouse TLR7-Flag prepared in 8)-4, and the HEK293 cells expressing rat TLR7-Flag prepared in 8)-5 were immobilized/subjected to membrane permeation with a Fixation and Permeabilization Solution (Becton, Dickinson and Company) and thereafter stained using huAT01_H3L2_IgG1LALA, which is one of the humanized anti-human TLR7 antibodies, and ALEXA FLUOR® 647 AffiniPure Goat anti-human IgG+IgM (H+L) (Jackson ImmunoResearch Inc.), which is the secondary antibody.
(§2) The binding of the humanized anti-human TLR7 antibody to human TLR7 was detected based on flow cytometry (Miltenyi Biotec K.K.), and the data was analyzed using software (Flowjo) which analyzes the data of flow cytometry.

[2] = target: T2, rat TLR7-Flag, expressed in HEK293 cells (rat, UniProt P58681 27-1050 (mouse entry)); assay: flow cytometry on fixed and permeabilised HEK293 cells expressing rat TLR7-Flag
T2 construct: not shown: Flag tag
T2 chain: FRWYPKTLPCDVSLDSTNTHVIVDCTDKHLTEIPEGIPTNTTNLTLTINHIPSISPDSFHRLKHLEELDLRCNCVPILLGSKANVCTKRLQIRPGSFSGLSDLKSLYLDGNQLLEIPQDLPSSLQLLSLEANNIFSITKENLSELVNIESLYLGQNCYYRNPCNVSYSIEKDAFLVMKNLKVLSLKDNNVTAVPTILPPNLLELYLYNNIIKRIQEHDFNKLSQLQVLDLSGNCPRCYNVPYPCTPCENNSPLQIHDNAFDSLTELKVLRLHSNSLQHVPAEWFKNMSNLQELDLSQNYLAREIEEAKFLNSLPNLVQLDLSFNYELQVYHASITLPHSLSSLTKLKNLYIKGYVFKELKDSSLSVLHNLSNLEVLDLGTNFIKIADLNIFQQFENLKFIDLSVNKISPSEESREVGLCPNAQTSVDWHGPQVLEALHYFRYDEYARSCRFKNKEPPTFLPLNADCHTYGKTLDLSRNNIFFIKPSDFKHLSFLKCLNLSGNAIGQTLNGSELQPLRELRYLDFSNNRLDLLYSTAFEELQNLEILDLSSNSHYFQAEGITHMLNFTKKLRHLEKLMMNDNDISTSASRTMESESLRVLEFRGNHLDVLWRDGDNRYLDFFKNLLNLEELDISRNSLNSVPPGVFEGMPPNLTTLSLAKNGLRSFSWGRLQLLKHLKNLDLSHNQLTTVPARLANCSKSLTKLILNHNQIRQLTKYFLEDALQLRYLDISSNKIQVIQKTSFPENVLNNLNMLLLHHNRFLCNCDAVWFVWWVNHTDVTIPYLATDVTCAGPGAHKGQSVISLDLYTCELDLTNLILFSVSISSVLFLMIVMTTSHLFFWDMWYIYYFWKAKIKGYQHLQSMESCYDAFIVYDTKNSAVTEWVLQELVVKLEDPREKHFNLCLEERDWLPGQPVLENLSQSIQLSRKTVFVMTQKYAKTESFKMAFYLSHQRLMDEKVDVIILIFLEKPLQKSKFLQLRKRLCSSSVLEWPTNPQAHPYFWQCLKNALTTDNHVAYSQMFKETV
Source text: as §1, §2

binding result [1]: binds | binding result [2]: no binding
B1: huAT01_H3L2_IgG1LALA antibody (antibody, V domains shown)
VH: QVQLVQSGAEVKKPGASVKVSCKASGYTFTNNWLHWVRQAPGQGLEWMGDIYPSNGRTNYAQKFQGRVTLTVDKSTSTAYMELSSLRSEDTAVYFCARERGYFDYWGQGTLVTVSS
VL: DIQMTQSPSSLSASVGDRVTITCKASQDINKYIAWYQQKPGKAPKLLIHYTSTLQPGIPSRFSGSGSGRDYTLTISSLQPEDFATYYCLQYDYLLTFGQGTKVEIKR
notes: Humanized AT01; heavy huAT01_H3_IgG1LALA, light huAT01_L2
